One may read the Kd as a measure of binding affinity in units of concentration. Low readings indicate tighter binding, high ones weaker binding.

From patent US20200148774A1 come the findings set out here.

The target of this experiment is hCD3ε 1-27 Fc (human). Briefly: SPR (Biacore). (In general: In SPR one partner is held on a chip, and binding of the other changes the refractive index at the surface.)

Changes are numbered by the printed parent chain.

hCD3ε 1-27 Fc (human), sequence (chain, as listed by the source): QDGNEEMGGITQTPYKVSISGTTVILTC

B1: 38E4v1 (antibody, V domains shown)
VH: EVQLVQSGAEVKKPGASVKVSCKASGFTFTSYYIHWVRQAPGQGLEWIGWIYPENDNTKYNEKFKDRVTITADTSTSTAYLELSSLRSEDTAVYYCARDGYSRYYFDYWGQGTLVTVSS
VL: DIVMTQSPDSLAVSLGERATINCKSSQSLLNSRTRKNYLAWYQQKPGQSPKLLIYWTSTRKSGVPDRFSGSGSGTDFTLTISSLQAEDVAVYYCKQSFILRTFGQGTKVEIK
Molecule B1 had a Kd of 1 nM. This counts as single-digit nanomolar.

B2: 40G5c (antibody, V domains shown)
VH: B1 VH with F27Y, S31N, E54G, N55D, D56G, D66G, V68A, I70L, G100S, R103N
VL: B1 VL with S49P, T57A, K61E, K95T
In turn, B2 displayed a dissociation constant Kd of 13 nM.
